The supplement of paper PMC10065799, “High-throughput profiling of sequence recognition by tyrosine kinases and SH2 domains using bacterial peptide display” (eLife, 2023)

What was measured:
Grb2 SH2 = Grb2 SH2 (UniProt P62993); assay: SH2 binding enrichment of the phosphorylated peptide, bacterial display (enrichment ratio); higher = better substrate or ligand; peptides without Tyr show the background
SHP2-C SH2 = assay: as above
c-Src SH2 = assay: as above
FGFR1 = FGFR1 (UniProt P11362); assay: phosphorylation enrichment, bacterial display (enrichment ratio); higher = better substrate or ligand; peptides without Tyr show the background
Fyn = Fyn (UniProt P06241); assay: as above
MERTK = MERTK (UniProt Q12866); assay: as above
EPHB2 = EPHB2 (UniProt P29323); assay: as above
FGFR3 = FGFR3 (UniProt P22607); assay: as above
EPHB1 = EPHB1 (UniProt P54762); assay: as above
Hck = Hck (UniProt P08631); assay: as above
Fer (mouse) = assay: as above
AncSZ = assay: as above
c-Abl (mouse) = assay: as above
Jak2 = Jak2 (UniProt O60674); assay: as above
c-Src = assay: as above
Fes = Fes (UniProt P07332); assay: as above
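For SH2 binding enrichment of the phosphorylated peptide, bacterial display in this document: peptide library displayed on the E. coli surface as eCPX fusions, selected cells deep-sequenced, score is each peptide's frequency after selection divided by its frequency in the input.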
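For phosphorylation enrichment, bacterial display in this document: 11-residue human phosphosite peptides and single-mutation variants displayed on the E. coli surface, counted by deep sequencing, each peptide's frequency after selection divided by its frequency in the unselected input library; frequency after pTyr selection over input frequency; kinase dosed for 20-30% of maximal phosphorylation in three min.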

Sequence of MERTK (Q12866 whole entry, looked up): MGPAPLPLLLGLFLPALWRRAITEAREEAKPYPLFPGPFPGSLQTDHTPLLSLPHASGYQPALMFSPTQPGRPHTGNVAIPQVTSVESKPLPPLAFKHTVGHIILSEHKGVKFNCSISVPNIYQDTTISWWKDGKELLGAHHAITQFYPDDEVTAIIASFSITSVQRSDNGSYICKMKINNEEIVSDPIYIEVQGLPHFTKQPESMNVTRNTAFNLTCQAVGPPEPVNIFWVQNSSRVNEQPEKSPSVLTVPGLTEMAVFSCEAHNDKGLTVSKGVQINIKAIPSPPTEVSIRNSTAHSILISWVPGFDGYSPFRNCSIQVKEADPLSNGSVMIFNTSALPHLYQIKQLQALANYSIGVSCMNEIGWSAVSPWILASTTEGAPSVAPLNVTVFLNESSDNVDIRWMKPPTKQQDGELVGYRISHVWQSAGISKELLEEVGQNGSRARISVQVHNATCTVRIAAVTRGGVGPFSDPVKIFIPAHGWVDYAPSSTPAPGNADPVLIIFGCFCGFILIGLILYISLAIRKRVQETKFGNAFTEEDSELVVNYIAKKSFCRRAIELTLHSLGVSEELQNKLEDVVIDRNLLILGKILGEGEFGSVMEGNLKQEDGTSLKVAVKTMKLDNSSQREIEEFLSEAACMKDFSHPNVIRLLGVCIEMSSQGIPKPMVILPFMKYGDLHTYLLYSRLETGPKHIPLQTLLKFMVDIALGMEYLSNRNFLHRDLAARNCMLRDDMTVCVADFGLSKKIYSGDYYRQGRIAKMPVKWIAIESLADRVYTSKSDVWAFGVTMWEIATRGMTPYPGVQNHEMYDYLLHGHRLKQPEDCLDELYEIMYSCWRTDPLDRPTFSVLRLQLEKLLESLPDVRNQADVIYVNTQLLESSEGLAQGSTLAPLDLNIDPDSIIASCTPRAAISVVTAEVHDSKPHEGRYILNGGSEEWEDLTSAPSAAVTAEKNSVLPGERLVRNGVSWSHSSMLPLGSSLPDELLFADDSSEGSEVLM
Sequence of EPHB1 (P54762 whole entry, looked up): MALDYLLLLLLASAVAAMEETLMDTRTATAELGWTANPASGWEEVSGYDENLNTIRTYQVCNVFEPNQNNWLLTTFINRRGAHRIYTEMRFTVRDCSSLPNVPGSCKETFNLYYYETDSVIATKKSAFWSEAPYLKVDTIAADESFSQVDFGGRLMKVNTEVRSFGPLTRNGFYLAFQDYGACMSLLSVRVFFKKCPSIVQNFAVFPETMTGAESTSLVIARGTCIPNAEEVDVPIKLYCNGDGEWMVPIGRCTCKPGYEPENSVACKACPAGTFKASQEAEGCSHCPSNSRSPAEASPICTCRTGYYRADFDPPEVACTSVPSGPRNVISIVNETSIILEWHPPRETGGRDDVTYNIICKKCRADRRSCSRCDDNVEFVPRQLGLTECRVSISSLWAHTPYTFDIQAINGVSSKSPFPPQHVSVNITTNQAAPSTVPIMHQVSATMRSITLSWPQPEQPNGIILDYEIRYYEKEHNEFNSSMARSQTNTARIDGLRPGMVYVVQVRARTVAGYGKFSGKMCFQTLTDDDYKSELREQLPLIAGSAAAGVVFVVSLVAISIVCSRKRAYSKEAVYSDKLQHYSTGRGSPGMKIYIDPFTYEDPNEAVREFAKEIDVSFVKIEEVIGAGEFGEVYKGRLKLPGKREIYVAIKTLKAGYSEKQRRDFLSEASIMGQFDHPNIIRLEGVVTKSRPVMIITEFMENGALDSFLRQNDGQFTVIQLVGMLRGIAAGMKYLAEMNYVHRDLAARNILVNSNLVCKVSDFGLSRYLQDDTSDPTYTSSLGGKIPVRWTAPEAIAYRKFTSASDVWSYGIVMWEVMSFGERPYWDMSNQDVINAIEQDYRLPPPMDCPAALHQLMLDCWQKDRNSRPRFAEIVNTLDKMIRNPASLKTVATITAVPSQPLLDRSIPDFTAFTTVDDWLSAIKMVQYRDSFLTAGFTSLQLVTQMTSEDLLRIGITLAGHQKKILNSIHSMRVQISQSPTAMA
Sequence of Jak2 (O60674 whole entry, looked up): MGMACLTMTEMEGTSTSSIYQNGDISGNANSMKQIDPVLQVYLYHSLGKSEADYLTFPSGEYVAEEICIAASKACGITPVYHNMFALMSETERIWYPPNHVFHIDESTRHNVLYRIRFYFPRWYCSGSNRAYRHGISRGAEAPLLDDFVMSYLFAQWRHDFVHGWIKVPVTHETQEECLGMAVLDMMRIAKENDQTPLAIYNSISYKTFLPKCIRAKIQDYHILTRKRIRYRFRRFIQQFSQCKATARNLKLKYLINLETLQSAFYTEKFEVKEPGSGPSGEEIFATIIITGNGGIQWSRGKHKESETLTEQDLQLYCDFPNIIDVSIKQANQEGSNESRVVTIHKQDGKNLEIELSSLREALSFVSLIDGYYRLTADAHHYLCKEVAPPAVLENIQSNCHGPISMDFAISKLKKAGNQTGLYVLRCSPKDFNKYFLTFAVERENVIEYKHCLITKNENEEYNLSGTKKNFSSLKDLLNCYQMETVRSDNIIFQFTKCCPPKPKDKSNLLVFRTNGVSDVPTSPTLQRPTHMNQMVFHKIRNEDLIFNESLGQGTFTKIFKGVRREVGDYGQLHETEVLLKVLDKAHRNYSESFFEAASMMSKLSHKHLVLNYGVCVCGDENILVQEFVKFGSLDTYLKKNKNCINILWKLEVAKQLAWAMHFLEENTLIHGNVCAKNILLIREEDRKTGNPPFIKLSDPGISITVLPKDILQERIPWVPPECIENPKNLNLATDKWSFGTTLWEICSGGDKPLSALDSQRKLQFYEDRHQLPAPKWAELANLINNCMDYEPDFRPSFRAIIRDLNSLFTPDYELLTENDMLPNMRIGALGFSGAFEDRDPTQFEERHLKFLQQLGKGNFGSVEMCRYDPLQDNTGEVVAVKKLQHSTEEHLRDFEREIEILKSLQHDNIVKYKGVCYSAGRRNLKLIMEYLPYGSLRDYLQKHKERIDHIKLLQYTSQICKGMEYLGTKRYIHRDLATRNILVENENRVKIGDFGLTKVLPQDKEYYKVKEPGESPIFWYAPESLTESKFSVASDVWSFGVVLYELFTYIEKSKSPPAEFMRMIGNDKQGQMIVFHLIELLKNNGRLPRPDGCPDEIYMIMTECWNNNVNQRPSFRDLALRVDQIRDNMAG
Sequence of Hck (P08631 whole entry, looked up): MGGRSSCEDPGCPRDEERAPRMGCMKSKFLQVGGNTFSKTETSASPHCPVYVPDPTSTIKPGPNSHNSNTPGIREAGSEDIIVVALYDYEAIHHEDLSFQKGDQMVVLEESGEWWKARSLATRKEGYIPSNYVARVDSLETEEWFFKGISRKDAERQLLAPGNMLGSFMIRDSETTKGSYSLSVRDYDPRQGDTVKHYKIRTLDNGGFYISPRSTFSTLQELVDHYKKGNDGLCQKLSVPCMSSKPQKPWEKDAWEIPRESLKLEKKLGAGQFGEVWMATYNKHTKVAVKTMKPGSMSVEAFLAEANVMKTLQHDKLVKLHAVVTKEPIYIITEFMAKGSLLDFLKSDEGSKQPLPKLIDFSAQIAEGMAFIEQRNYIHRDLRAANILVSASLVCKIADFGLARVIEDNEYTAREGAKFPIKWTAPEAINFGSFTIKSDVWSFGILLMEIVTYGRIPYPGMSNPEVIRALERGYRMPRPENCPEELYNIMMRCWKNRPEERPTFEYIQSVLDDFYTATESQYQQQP
Sequence of EPHB2 (P29323 whole entry, looked up): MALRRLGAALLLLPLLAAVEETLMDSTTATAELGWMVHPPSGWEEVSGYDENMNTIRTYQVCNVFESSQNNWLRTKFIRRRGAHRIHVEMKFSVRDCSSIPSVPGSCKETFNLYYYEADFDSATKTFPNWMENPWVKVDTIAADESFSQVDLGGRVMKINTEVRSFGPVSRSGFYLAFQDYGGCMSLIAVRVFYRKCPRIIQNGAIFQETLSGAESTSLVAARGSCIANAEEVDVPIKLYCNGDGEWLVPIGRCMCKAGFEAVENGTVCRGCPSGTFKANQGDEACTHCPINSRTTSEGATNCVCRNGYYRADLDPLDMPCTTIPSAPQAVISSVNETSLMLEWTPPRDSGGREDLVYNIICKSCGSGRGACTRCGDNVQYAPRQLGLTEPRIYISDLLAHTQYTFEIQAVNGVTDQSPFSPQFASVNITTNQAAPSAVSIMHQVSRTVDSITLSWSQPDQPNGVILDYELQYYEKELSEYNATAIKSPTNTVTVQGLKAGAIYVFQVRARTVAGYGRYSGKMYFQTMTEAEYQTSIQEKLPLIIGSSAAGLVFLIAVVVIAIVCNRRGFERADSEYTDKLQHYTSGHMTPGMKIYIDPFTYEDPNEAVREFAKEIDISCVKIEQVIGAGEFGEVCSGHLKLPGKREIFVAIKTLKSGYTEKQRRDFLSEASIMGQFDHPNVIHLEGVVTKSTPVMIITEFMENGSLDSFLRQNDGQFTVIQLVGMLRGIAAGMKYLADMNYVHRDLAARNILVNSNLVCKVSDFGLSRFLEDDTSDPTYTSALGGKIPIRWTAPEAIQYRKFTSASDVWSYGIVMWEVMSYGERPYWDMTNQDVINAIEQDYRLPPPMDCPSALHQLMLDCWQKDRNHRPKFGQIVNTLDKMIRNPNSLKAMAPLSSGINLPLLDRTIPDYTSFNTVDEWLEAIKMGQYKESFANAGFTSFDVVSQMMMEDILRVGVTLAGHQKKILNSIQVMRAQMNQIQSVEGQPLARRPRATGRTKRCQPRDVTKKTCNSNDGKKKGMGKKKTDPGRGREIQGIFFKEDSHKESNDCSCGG

| Sequence | SH2 binding enrichment (Grb2 SH2) | SH2 binding enrichment (SHP2-C SH2) | SH2 binding enrichment (c-Src SH2) | phosphorylation enrichment (FGFR1) | phosphorylation enrichment (Fyn) | phosphorylation enrichment (MERTK) | phosphorylation enrichment (EPHB2) | phosphorylation enrichment (FGFR3) | phosphorylation enrichment (EPHB1) | phosphorylation enrichment (Hck) | phosphorylation enrichment (Fer (mouse)) | phosphorylation enrichment (AncSZ) | phosphorylation enrichment (c-Abl (mouse)) | phosphorylation enrichment (Jak2) | phosphorylation enrichment (c-Src) | phosphorylation enrichment (Fes) |
| --- | --- | --- | --- | --- | --- | --- | --- | --- | --- | --- | --- | --- | --- | --- | --- | --- |
| LQLLGYRPVFS [CHST6_Y358_YF] | 0.806 | 0.626 | 0.68 | 0.535 | 0.451 | 0.502 | 0.793 | 0.707 | 0.598 | 0.697 | 0.57 | 1.17 | 0.865 | 1.15 | 0.487 | 1.42 |
| EEQFFYEKAIL [BCCIP_Y257_E254Q] | 1.04 | 0.795 | 0.53 | 0.442 | 0.466 | 0.502 | 0.48 | 0.588 | 0.434 | 0.654 | 3.96 | 1.11 | 0.748 | 0.828 | 0.608 | 0.999 |
| SLIDGYYRLTA [JAK2_Y372] | 0.986 | 6.44 | 2.57 | 2.49 | 0.467 | 0.436 | 0.495 | 1.69 | 0.457 | 0.475 | 0.427 | 0.92 | 0.522 | 7.08 | 0.451 | 0.926 |
| LITILYIGFLG [KCNQ1_Y267_T265I] | 0.879 | 1.26 | 0.845 | 0.72 | 0.809 | 1.43 | 1.18 | 1.31 | 0.835 | 1.08 | 0.895 | 2.28 | 2.13 | 2.73 | 1.24 | 2.55 |
| CPSLLYSPVSS [CAMKK2_Y128_P127L] | 0.784 | 0.682 | 1.07 | 1.38 | 1.87 | 8.18 | 4.13 | 1.36 | 4.73 | 6.11 | 12.2 | 1.44 | 1.06 | 1.28 | 3.5 | 2.02 |
| ALTRSYVREKV [CYP2C8_Y243_I244V] | 0.804 | 0.551 | 0.495 | 0.364 | 0.387 | 0.459 | 0.462 | 0.522 | 0.42 | 0.437 | 0.398 | 0.571 | 0.617 | 0.353 | 0.316 | 0.532 |
| NCFKFYMSDDI [ATRX_Y204_YF] | 0.973 | 0.721 | 0.689 | 0.565 | 0.386 | 0.394 | 0.53 | 0.745 | 0.605 | 0.512 | 0.521 | 1.2 | 0.95 | 1.17 | 0.447 | 1.23 |

Now from value to sequence, other results behind:

| SH2 binding enrichment (Grb2 SH2) | SH2 binding enrichment (SHP2-C SH2) | SH2 binding enrichment (c-Src SH2) | Sequence | phosphorylation enrichment (FGFR1) | phosphorylation enrichment (Fyn) | phosphorylation enrichment (MERTK) | phosphorylation enrichment (EPHB2) | phosphorylation enrichment (FGFR3) | phosphorylation enrichment (EPHB1) | phosphorylation enrichment (Hck) | phosphorylation enrichment (Fer (mouse)) | phosphorylation enrichment (AncSZ) | phosphorylation enrichment (c-Abl (mouse)) | phosphorylation enrichment (Jak2) | phosphorylation enrichment (c-Src) | phosphorylation enrichment (Fes) |
| --- | --- | --- | --- | --- | --- | --- | --- | --- | --- | --- | --- | --- | --- | --- | --- | --- |
| 3.37 | 0.668 | 1.05 | LDPMVYMNDTS [PTK2B_Y834_K838T] | 0.64 | 0.588 | 0.7 | 0.734 | 0.708 | 0.494 | 0.728 | 0.787 | 0.958 | 1.32 | 1.48 | 0.811 | 1.11 |
| 1.01 | 0.849 | 0.884 | DTQNSYWCATS [TSC1_Y304_G305W] | 1.07 | 0.485 | 1.36 | 0.456 | 0.832 | 0.535 | 0.518 | 0.405 | 0.952 | 0.633 | 0.805 | 0.52 | 0.916 |
| 0.551 | 0.622 | 0.367 | GAVGNYSGGLA [MGMT_Y158] | 0.453 | 0.374 | 0.422 | 0.48 | 0.61 | 0.554 | 0.408 | 0.483 | 0.57 | 0.43 | 0.419 | 0.335 | 0.765 |
| 0.914 | 0.746 | 0.568 | MWGSDYVHLSR [MAP3K4_Y582_Q584H] | 3.31 | 0.472 | 0.53 | 1.47 | 1.82 | 3.2 | 0.486 | 0.417 | 0.951 | 0.804 | 1.72 | 0.471 | 0.693 |
| 0.852 | 0.651 | 0.472 | IIGNGYYFRVF [MYBPC3_Y1135] | 0.374 | 0.327 | 0.318 | 0.619 | 0.79 | 0.628 | 0.373 | 0.413 | 1.08 | 0.775 | 1.46 | 0.335 | 1.16 |
| 0.951 | 1.28 | 0.644 | ERSMSYCDESR [SMG1_Y143_S144C] | 0.475 | 0.422 | 0.43 | 0.496 | 0.551 | 0.435 | 0.402 | 0.474 | 0.788 | 0.704 | 0.728 | 0.491 | 0.77 |
| 21.1 | 2.77 | 2.53 | LLSVAYQNVVG [YWHAG_Y49_K50Q] | 1.34 | 0.757 | 0.519 | 1.07 | 1.08 | 1.19 | 0.632 | 0.83 | 1.23 | 0.832 | 1.22 | 0.443 | 1.25 |
| 0.995 | 0.454 | 0.591 | TFLRTYTDTMQ [TSPAN7_Y124_A127T] | 0.486 | 0.464 | 0.391 | 0.491 | 0.497 | 0.527 | 0.403 | 0.501 | 0.68 | 0.69 | 0.687 | 0.425 | 0.76 |
| 0.991 | 0.752 | 0.823 | YGTAQYCCRMG [LRRK2_Y2023_I2020T] | 0.498 | 1.01 | 2.78 | 9.81 | 0.603 | 0.714 | 1.2 | 0.603 | 0.719 | 3.23 | 0.506 | 0.757 | 0.613 |
